The text below walks through data of PMC8840716, “Functional Antagonism of WRI1 and TCP20 Modulates GH3.3 Expression to Maintain Auxin Homeostasis in Roots”.

For data set [1], the target named is T1, AtWRI1 1-302 (UniProt Q6X5Y6 1-302). Briefly: EMSA; 15 mM HEPES-KOH pH 7.5, 7.5 mM KCl, 0.5 mM EDTA, 5% glycerol, 2 mM DTT, 1 ug/uL BSA, 0.05 ug/uL poly(dI-dC), 2 fmol/uL probe, ~1 pmol His-TCP20 in 20 uL, room temperature 30 min. Particulars: protein: recombinant; tags: N-terminal 6xHis (pNIC28-Bsa4); label: 5' biotin. For orientation: In EMSA bound probe runs differently from free probe, usually more slowly.

The target of data set [2] is T2, TCP20 (UniProt Q9LSD5 1-314). Briefly: EMSA; plus AtWRI1 1-302, 0.53-2.12 pmol (no reduction); 15 mM HEPES-KOH pH 7.5, 7.5 mM KCl, 0.5 mM EDTA, 5% glycerol, 2 mM DTT, 1 ug/uL BSA, 0.05 ug/uL poly(dI-dC), 2 fmol/uL probe, ~1 pmol His-TCP20 in 20 uL, room temperature 30 min. To be noted: protein: recombinant; tags: 6xHis (pET41a-6xHis); chain copies: 2; label: 5' biotin.

Data set [3] has as its target T1, AtWRI1 1-302. The data set can be described thus: EMSA; equal affinity to probe 3; 15 mM HEPES-KOH pH 7.5, 7.5 mM KCl, 0.5 mM EDTA, 5% glycerol, 2 mM DTT, 1 ug/uL BSA, 0.05 ug/uL poly(dI-dC), 2 fmol/uL probe, ~1 pmol His-TCP20 in 20 uL, room temperature 30 min. Particulars: protein: recombinant; tags: N-terminal 6xHis (pNIC28-Bsa4); label: 5' biotin.
Data set [4] deals with T2, TCP20. The data set can be described thus: EMSA; 15 mM HEPES-KOH pH 7.5, 7.5 mM KCl, 0.5 mM EDTA, 5% glycerol, 2 mM DTT, 1 ug/uL BSA, 0.05 ug/uL poly(dI-dC), 2 fmol/uL probe, ~1 pmol His-TCP20 in 20 uL, room temperature 30 min. To be noted: protein: recombinant; tags: 6xHis (pET41a-6xHis); chain copies: 2; label: 5' biotin.
The target in data set [5] is T1, AtWRI1 1-302. The data set can be described thus: EMSA; equal affinity to probe 2; 15 mM HEPES-KOH pH 7.5, 7.5 mM KCl, 0.5 mM EDTA, 5% glycerol, 2 mM DTT, 1 ug/uL BSA, 0.05 ug/uL poly(dI-dC), 2 fmol/uL probe, ~1 pmol His-TCP20 in 20 uL, room temperature 30 min. To be noted: protein: recombinant; tags: N-terminal 6xHis (pNIC28-Bsa4); label: 5' biotin.
The target in data set [6] is T1, AtWRI1 1-302. Briefly: EMSA; equal affinity to probe 1; 15 mM HEPES-KOH pH 7.5, 7.5 mM KCl, 0.5 mM EDTA, 5% glycerol, 2 mM DTT, 1 ug/uL BSA, 0.05 ug/uL poly(dI-dC), 2 fmol/uL probe, ~1 pmol His-TCP20 in 20 uL, room temperature 30 min. Particulars: protein: recombinant; tags: N-terminal 6xHis (pNIC28-Bsa4); label: 5' biotin.

Where a chain is given by its changes, count along the chain named.

T1 sequence (Q6X5Y6 1-302): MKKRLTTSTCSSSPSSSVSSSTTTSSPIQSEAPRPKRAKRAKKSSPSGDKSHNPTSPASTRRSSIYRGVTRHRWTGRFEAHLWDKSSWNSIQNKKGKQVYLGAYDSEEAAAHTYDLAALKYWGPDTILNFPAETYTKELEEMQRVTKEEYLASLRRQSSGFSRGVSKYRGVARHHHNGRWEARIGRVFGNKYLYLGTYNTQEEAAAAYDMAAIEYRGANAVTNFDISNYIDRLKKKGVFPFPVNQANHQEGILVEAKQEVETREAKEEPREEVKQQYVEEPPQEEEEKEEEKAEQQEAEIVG
T2 sequence (Q9LSD5 whole entry): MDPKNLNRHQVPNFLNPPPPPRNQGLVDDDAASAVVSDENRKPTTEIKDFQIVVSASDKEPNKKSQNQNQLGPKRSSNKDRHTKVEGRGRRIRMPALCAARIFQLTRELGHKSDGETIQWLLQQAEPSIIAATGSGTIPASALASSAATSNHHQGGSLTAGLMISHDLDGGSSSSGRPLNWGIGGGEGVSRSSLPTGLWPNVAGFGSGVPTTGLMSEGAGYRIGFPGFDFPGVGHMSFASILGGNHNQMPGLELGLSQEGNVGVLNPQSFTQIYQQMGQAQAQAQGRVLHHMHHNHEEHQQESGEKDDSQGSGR

B1: proGH3.3 probe 3 (dsDNA)
DNA 1: GACATATCAGTCCCACATGTCTGCCCAAAACTAGCCAAAGATTACGTGACC
DNA 2: GGTCACGTAATCTTTGGCTAGTTTTGGGCAGACATGTGGGACTGATATGTC
Regarding B1, the binding result in data set [1] and in data set [2] was “binds” throughout.

B2: proGH3.3 probe 3M (dsDNA)
DNA 1: B1 DNA 1 with G10A, C12A, C13A, C14A, C16A
DNA 2: B1 DNA 2 with G36T, G38T, G39T, G40T, C42T
For B2, the binding result in data set [3] is reported as “binds”; in data set [4], “no binding”.

B3: proGH3.3 probe 2 (dsDNA)
DNA 1: ATGTCTGCCCAAAACTAGCCAAAGATTACGTGACCGCGGTCCCTCTTGTCC
DNA 2: GGACAAGAGGGACCGCGGTCACGTAATCTTTGGCTAGTTTTGGGCAGACAT
B3: the binding result in data set [1] and in data set [4] was “binds” each time.

B4: proGH3.3 probe 2M (dsDNA)
DNA 1: B3 DNA 1 with G38A, G39A, C41A, C42A, C43A, C45A
DNA 2: B3 DNA 2 with G7T, G9T, G10T, G11T, C13T, C14T
In the case of B4, the binding result in data set [5] is on record as “binds”; in data set [4] it was “no binding”.

B5: proGH3.3 probe 4 (dsDNA)
DNA 1: CTATATATTTTTAATATTTAGGTCCCATTAAATCAGTTTGTGATTTCAGA
DNA 2: TCTGAAATCACAAACTGATTTAATGGGACCTAAATATTAAAAATATATAG
B5: the binding result in data set [2] was “binds”.

B6: proGH3.3 probe 4M (dsDNA)
DNA 1: B5 DNA 1 with G21A, G22A, C24A, C25A, C26A
DNA 2: B5 DNA 2 with G25T, G26T, G27T, C29T, C30T
As for B6, the binding result in data set [4] is “no binding”.

B7: proGH3.3 probe 1 (dsDNA)
DNA 1: TCTAACGATAACAAACCGAGCCCACTTTTATGTCGACGTGGAATTTGGCT
DNA 2: AGCCAAATTCCACGTCGACATAAAAGTGGGCTCGGTTTGTTATCGTTAGA
As for B7, the binding result in data set [1] and in data set [4] was “binds” throughout.

B8: proGH3.3 probe 1M (dsDNA)
DNA 1: B7 DNA 1 with G18A, C21A, C22A, C23A, C25A
DNA 2: B7 DNA 2 with G26T, G28T, G29T, G30T, C33T
B8: the binding result in data set [6] was “binds”; in data set [4], “no binding”.
